Molecular target: rabbit skeletal muscle F-actin (rabbit) (UniProt P68135)
Assay: co-sedimentation; high-speed F-actin cosedimentation: 5 uM UtrN-R3 incubated 30 min with 0-160 uM phalloidin-stabilized F-actin, 100,000g for 20 min; F-buffer (4.5 mM Tris-HCl pH 8.0, 0.18 mM CaCl2, 50 mM KCl, 2 mM MgCl2, 1.2 mM ATP, 0.5 mM DTT); bound and free by densitometry of Coomassie gels, hyperbola fit

Row | Kd [µM] | Substance
1 | 105 | UtrN-R3 WT, bacterially derived (mouse utrophin fragment encoding the N terminus through spectrin repeat 3, not phosphorylated) (from UniProt E9Q6R7 1-3430) (domain or fragment)
2 | 84.5 | UtrN-R3 WT, insect cell-derived (mouse utrophin fragment encoding the N terminus through spectrin repeat 3, phosphorylated) (from UniProt E9Q6R7 1-3430) (domain or fragment)

— article PMC9922815
